This data set relates to MS2 coat protein. As to the kind of experiment: apparent KD of MS2 coat protein; higher = weaker reporter binding. To be noted: Eterna round: R107. A digest of the protocol: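 Apparent KD per design is the median of normalised cluster binding-curve fits. Designed RNA switches transcribed on-chip from Illumina sequencing clusters were titrated with SNAP-549-labelled MS2 coat protein in twofold steps from 0.7 or 1.5 nM to 3 µM, with 0.8–1.5 h down to 10–20 min per step. Buffer: 100 mM Tris-HCl pH 7.5, 80 mM KCl, 4 mM MgCl2, without or with constant ligand.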

Setting [1] is: input ligand: theophylline 20 uM.
The mark [2] stands for this setting: input ligand: theophylline 2 mM.
[3] abbreviates: input ligand: tryptophan 2.4 mM.

The results in this text go back to the supplement of paper PMC9170038.

“CUACAUUUGUAGAAACCGGUCACCAUUAUUCGAGGACCGGUACGGCCGCCACUCGUAUCAUGUGAUACAUGAGGAUCACCCAUGU [Tryptophan A 9]”: the “apparent KD of MS2 coat protein” value is, setting by setting: (input ligand: arginine 13.2 mM) 27.3 nM; under setting [1], 33.7 nM; under setting [2], 45.5 nM.
The matching figures for “CUAUAAAUAGCGGCCGCCACUUACUCAUGAGGUAACAACAUGAGGAUCACCCAUGUUUGAGGAUCAAGGACCGGGCUAUUUAUAG [AstrosSSTryB#8]”: 23.7 nM, 32.8 nM and 36.1 nM.
The matching figures for “CUAUAUGGAAACAUAUAGAAGCGAAAGCAACGAGGACCGGUACGGCCGCCACUCGAAGAGUGGUGGACAUGAGGAUCACCCAUGU [Design 3]”: 40.8 nM, 71.6 nM and 99.6 nM.
The matching figures for “CUAUGCAGGUCGGCCGCCACUACACACAUGAGGAUCACCCAUGUAGUUACUGGGUGAAGUGGCAGUAGGACCGGGACCUGCAUAU [Brourdmod07]”: 273 nM, 534 nM and 799 nM.
With “CUCUGAGUGAGCAAUCACUCAGAGGCGGAUACCAGCGAGGUCCAUCGCCCUUGGCAGCCGAACAUGAGGAUCACCCAUGUCGGUA [#1 Same State - Theophylline A Attempt #22 (HarryS)]”, the “apparent KD of MS2 coat protein” value amounted to 9.29 nM (input ligand: arginine 13.2 mM), 13 nM under setting [1] and 11 nM under setting [3].
Take “CUGACAUGAGGAUCACCCAUGUACACUGAAGGAGCGUCGAGAAUGACAGGUAGGUCGCAGAAUAAUAAUGGUGAUGUUUAGGUAA [Exclusion Arginine A GF 2]”: the “apparent KD of MS2 coat protein” value is, setting by setting: (input ligand: arginine 13.2 mM) 24 nM; (input ligand: none) 20.8 nM; under setting [1], 34.1 nM; under setting [2], 26.3 nM; under setting [3], 23.4 nM.
The corresponding values for “CUGGACAUGAGGAUCACCCAUGUAAAUCCUCGAGGACCGGUACGGCCGCCACUCGAACGAGUGGCGCGCGAGUGCGCACUCGCGC [aKa]” are 43.6 nM, 41.4 nM, 66.9 nM, 49.3 nM and 28.3 nM.
Consider “CUUCGCAUAGGAAAACUAUGUGAAGAAAAUCGAGGACCGGUACGGCCGCCACUCGUCCUCAACAUGAGGAUCACCCAUGUAAUAA [Mat - Exclusion - Trytophan A - D6]”, for which the “apparent KD of MS2 coat protein” value amounted to 17.3 nM (input ligand: arginine 13.2 mM), 21.2 nM under setting [1] and 20.4 nM under setting [2].
Turning to “GAAAGAUGAGGCGGCAGUACCGAUGUCGAUACCAGCAUGAACAAAUGCCCUUGGCAGCGACAUGAGGAUCACCCAUGUAUCUGCG [Reraatlaan]”, the “apparent KD of MS2 coat protein” value worked out at 14.5 nM (input ligand: arginine 13.2 mM), 16.1 nM under setting [1] and 11.6 nM under setting [3].
With “GACCGAUUAUAGCACGAUUGUCUUGUGGAAGGAGCGCAGAGGGCUGCAGGUAGGUCGCCACAUGAGGAUCACCCAUGUCAGGAUA [Raanti]”, the “apparent KD of MS2 coat protein” value is, setting by setting: (input ligand: arginine 13.2 mM) 4.57 nM; (input ligand: none) 60 nM; under setting [1], 66.6 nM; under setting [2], 59.1 nM; under setting [3], 46.6 nM.
For the sequence “GAGAGAGGAGUGCGGCGUGUUCCGCUCCGUCGAGGACCGGUACGGCCGCCACUCGACAUGAGGAUCACCCAUGUCCUCUCUCGCG [#1 Exclusion - Tryptophan A Attempt #4 (HarryS)]”, the “apparent KD of MS2 coat protein” value is 16.8 nM (input ligand: arginine 13.2 mM), 102 nM under setting [1] and 42.1 nM under setting [2].
The corresponding values for “GAGCUCGUGGACUGGCGUGCUCCGCUCCGUCGAGGACCGGUACGGCCGCCACUCGACAUGAGGAUCACCCAUGUGUGAGCUCGCU [#1 Exclusion - Tryptophan A Attempt #21 (HarryS)]” are 61.1 nM, 185 nM and 390 nM.
For the sequence “GAGCUGAUGUAGAGAAUAAAUAUAAGAGAUACCAGUACAGAAAUGUACCCUUGGCAGCUCAACUUUACAUGAGGAUCACCCAUGU [Ex Theophylline A 18]”, the “apparent KD of MS2 coat protein” value turned out to be 14.1 nM (input ligand: arginine 13.2 mM), 16.7 nM under setting [1] and 13.9 nM under setting [3].
The matching figures for “GAGCUGAUGUAGAGCUAAUAUAAGAGAGAUACCAGUACAGAAAUGUACCCUUGGCAGCUCAACUUUACAUGAGGAUCACCCAUGU [Ex Theophylline A 21]”: 12.2 nM, 13.4 nM and 16 nM.
In the case of “GAGUAGAGGACGGCCGCCACUGAACAUGAGGAUCACCCAUGUCGUGAUCCGUUGCCUGAAGAAGAUAGGACCGGGUCAUGUGCUC [Exclusion Tryptophan B GF 20]”, the “apparent KD of MS2 coat protein” value (input ligand: arginine 13.2 mM) came to 40.4 nM; the “apparent KD of MS2 coat protein” value (input ligand: none) was 28.6 nM; the “apparent KD of MS2 coat protein” value under setting [1] came to 44.7 nM; the “apparent KD of MS2 coat protein” value under setting [2] came out at 31.8 nM; the “apparent KD of MS2 coat protein” value under setting [3] amounted to 25.5 nM.
“GAUAGAACAAAAGUUUUAUCAGUGGGUGAACGAGGACCGGUACGGCCGCCACUCGGACAUGAGGAUCACCCAUGUCCAUGUGAAA [AstrosExyTryA#17]”: the “apparent KD of MS2 coat protein” value by setting is: (input ligand: arginine 13.2 mM) 12.6 nM; (input ligand: none) 18.1 nM; under setting [1], 17.1 nM; under setting [2], 19.5 nM; under setting [3], 43.9 nM.
Turning to “GAUAGUUGAUGGGAUACCAGCGUGCACAUGAGGAUCACCCAUGUGGUUCGUGUACGACGGCGCCCUUGGCAGCCCAUAUUGUGUA [#13 Same State - Theophylline B]”, the “apparent KD of MS2 coat protein” value reads like this: (input ligand: arginine 13.2 mM) 58.2 nM; under setting [1], 116 nM; under setting [3], 181 nM.
“GAUAUGGAAACAUGUCAGAUCCUUACCGGUCGAGGACCGGUACGGCCGCCACUCGAAAAUAAUAAACAUGAGGAUCACCCAUGUA [Ex Tryptophan A 16]”: the “apparent KD of MS2 coat protein” value reads like this: (input ligand: arginine 13.2 mM) 17 nM; under setting [1], 18.8 nM; under setting [2], 17.5 nM.
Take “GAUGAACUAUUUGAUACCAGACAACAUGAGGAUCACCCAUGUGCGCGUCGUCCUCUGCCUGUCCCUUGGCAGCAAAUAGUUUAUC [XTheo B #10]”: the “apparent KD of MS2 coat protein” value reads like this: (input ligand: arginine 13.2 mM) 52.6 nM; under setting [1], 81.8 nM; under setting [3], 36.6 nM.
The corresponding values for “GAUGGAAUAAGAGAUACCAGACACAAUUUAGCAUGUAUAUACAUGAGGAUCACCCAUGUAGUCCCUUGGCAGCUCUGGUUAGUGU [theeternabot_exclusion_MS2_Theo_B_48]” are 21.4 nM, 27.7 nM and 20.8 nM.
The matching figures for “GCAAUAACGAUUGAUACCAGCAUGUUAACAUGAGGAUCACCCAUGUUAAGGAUAACAUAAUGCCCUUGGCAGCAACGGAAAGCCG [Ac]”: 16.8 nM, 22.9 nM and 18.5 nM.
Consider “GCACCAGGUACGGAUACCAGAGCAAGCCAAAUGAGUGACCAUGAGGAUCACCCAUGGUUGCUCCCUUGGCAGCCGUACCUGGUGC [ETB NP+V+V2 #13 Diff Apt, +-Same Structure]”, for which the “apparent KD of MS2 coat protein” value reads like this: (input ligand: arginine 13.2 mM) 7.28 nM; (input ligand: none) 12 nM; under setting [1], 12.1 nM; under setting [2], 79 nM; under setting [3], 10.9 nM.
As for “GCACGACAUGAGGAUCACCCAUGUGCCGAUACCAGCCGGAUAUACGGCCCUUGGCAGCGGAGUGGAUCCGGAGGACCAUGGGUAA [Same State Theophylline A GF7]”, the “apparent KD of MS2 coat protein” value is, setting by setting: (input ligand: arginine 13.2 mM) 2.16 nM; (input ligand: none) 236 nM; under setting [1], 156 nM; under setting [2], 250 nM; under setting [3], 92.5 nM.
Consider “GCAGACAUGAGGAUCACCCAUGUACUUGGGCGAGGACCGGUACGGCCGCCACUCGUAGACUUGACGAGGAAAUGUUCUCGCAGGG [theeternabot_sameState_MS2_Trp_A_24]”, for which the “apparent KD of MS2 coat protein” value was found to be 22.1 nM (input ligand: arginine 13.2 mM), 31.6 nM under setting [1] and 28.4 nM under setting [2].
The corresponding values for “GCAUCCUAGUCGGCCGCCACUGGUACGAACACCUUCACCCGUGUGCACAUGAGGAUCACCCAUGUUAGGACCGGGACUAGGAUGC [SSTryp B #21]” are 10.3 nM, 11 nM and 8.45 nM.
As for “GCAUCCUAGUCGGCCGCCACUGGUAUCAACACCUUCACCCGUGUGCACAUGAGGAUCACCCAUGUUAGGACCGGGACUAGGAUGC [SSTryp B #19]”, the “apparent KD of MS2 coat protein” value reads like this: (input ligand: arginine 13.2 mM) 8.01 nM; under setting [1], 12.5 nM; under setting [2], 9.55 nM.
For “GCCGCGGCCGCGAUACACAUGGGUGUGUAACGAGGACCGGUACGGCCGCCACUCGAGAUGAUGUACAUGAGGAUCACCCAUGUAC [Exclusion Tryp A GF13]”, the “apparent KD of MS2 coat protein” value (input ligand: arginine 13.2 mM) amounted to 11.8 nM; the “apparent KD of MS2 coat protein” value (input ligand: none) amounted to 11.6 nM; the “apparent KD of MS2 coat protein” value under setting [1] amounted to 15.4 nM; the “apparent KD of MS2 coat protein” value under setting [2] is 11.9 nM; the “apparent KD of MS2 coat protein” value under setting [3] came to 13.9 nM.
“GCCGCGGCCGGAAUAAACAUGGGUAAAUAACGAGGACCGGUACGGCCGCCACUCGAGAUAAAUAACAUGAGGAUCACCCAUGUAC [Exclusion Tryp A GF11]”: the “apparent KD of MS2 coat protein” value came out at 43 nM (input ligand: arginine 13.2 mM), 111 nM under setting [1] and 123 nM under setting [2].
Regarding “GCGCGCGCCGAAAGGCGCGCGUGUUGCGAUACCAGCCCGGAAACGGGCCCUUGGCAGCGCACAUGAGGAUCACCCAUGUCAUGUU [Exclusion - Theophylline A Attempt #1 (HarryS)]”, the “apparent KD of MS2 coat protein” value was determined as 14.9 nM (input ligand: arginine 13.2 mM); 17.9 nM (input ligand: none); 27.1 nM under setting [1]; 24.5 nM under setting [2]; 21.9 nM under setting [3].
The matching figures for “GCUACGUGCUGAAGGAGCGUGGACCUAAACAUGAGGAUCACCCAUGUCGUGUAGGCAGAUUCACAGGUAGGUCGCAGCACGUAGC [SSAB NP+V+V2 #14 Same Structure]”: 61.2 nM, 92.2 nM, 123 nM, 120 nM and 99.7 nM.
For the sequence “GCUGUAAGUGCAGAUACCAGCAAGUGAGGUUUCAUAUGACAUGAGGAUCACCCAUGUAUCUGCCCUUGGCAGCUGCACUUACAGC [#28 Same State - Theophylline B]”, the “apparent KD of MS2 coat protein” value stood at 17 nM (input ligand: arginine 13.2 mM), 24.2 nM under setting [1] and 21.7 nM under setting [3].
The matching figures for “GCUUAGAAACCUGAUACCAGUCAGCCCUAUGACAUGAGGAUCACCCAUGUGAUACUCACGGACCCUUGGCAGCAGGGUCGAUUAC [theeternabot_sameState_MS2_Theo_B_17]”: 231 nM, 812 nM and 1000 nM.
For “GCUUGGGUCGCAAGGCCCUGGCGUUGCGAUACCAGCACGGUAACGUGCCCUUGGCAGCGCACAUGAGGAUCACCCAUGUGGUGCG [#1 Exclusion - Theophylline A Attempt #22 (HarryS)]”, the “apparent KD of MS2 coat protein” value is, setting by setting: (input ligand: arginine 13.2 mM) 16.5 nM; (input ligand: none) 18.3 nM; under setting [1], 27.8 nM; under setting [2], 229 nM; under setting [3], 17.4 nM.
